Laboratory results from patent US20210277110A1 (Janssen / Centocor, published 2021).
Changes are numbered by the printed parent chain. Read-outs that look alike come from different tables or passages of the source. Each block holds one binder with its values, some of them ahead of it.

Legend:
[1] = target: T1, recombinant human TIM-3-Fc fusion protein (huTIM-3-Fc) (human, UniProt Q8TDQ0 22-200); experiment: competition ELISA on coated Fc-TIM-3, competitor galectin-9
T1 construct: range 22-200; Bought from R&D Systems (NS0-derived); Deglycosylated for HDX-MS; also called recombinant human Fc-TIM-3 chimera; TIM-3 IgG1 Fc Chimera; not shown: IgG1 Fc of the bought chimera

[2] = target: T2, Full length human PD1 (huPD1) on cells (human, UniProt Q15116 25-288); experiment: cell-based or functional assay
[3] = target: T3, Extracellular domain of cyno PD1 (cPD1-ECD) (Macaca fascicularis (cynomolgus)); experiment: SPR ProteOn, captured mAb, cynoPD1-ECD analyte
T3 construct: Expressed with a hexahistidine tag or as Fc fusion; also called cynoPD1-ECD; cynoPD-1-ECD
T3 chain: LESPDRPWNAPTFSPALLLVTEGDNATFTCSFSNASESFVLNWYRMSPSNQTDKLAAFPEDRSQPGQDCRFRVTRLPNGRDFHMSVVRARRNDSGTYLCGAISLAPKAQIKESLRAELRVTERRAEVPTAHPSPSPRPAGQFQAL
Description: (§1) Affinity measurements using Surface Plasmon Resonance (SPR) were performed using a ProteOn XPR36 system. A biosensor surface was prepared by coupling a mixture of anti-IgG Fc modified alginate polymer layer surface of a GLC chip using the manufacturer instructions for amine-coupling chemistry. […] The collected data were processed and fitted to a Langmuir 1:1 binding model. The result for each mAb was reported in the format of kₒₙ (On-rate), koff (Off-rate) and KD (equilibrium dissociation constant).
(§2) STDEV were calculated for 3 or more replicates generated for human and cyno proteins. If less than 3 replicates were calculated, RANGE was indicated. RANGE is defined as the low and high values for the replicates tested. For samples in the Table 10 or Table 11 without value indicated in RANGE or STDEV, only one experiment was performed.

[4] = target: T2, Full length human PD1 (huPD1) on cells; experiment: flow cytometry, PHA-stimulated Jurkat cells
Description: Jurkat cells were stimulated overnight with 20 ng/ml of PHA, harvested, washed, and checked for viability. The cells were then incubated at 6-10° C. for 45-60 minutes with various concentrations of test antibodies, washed and incubated at 6-10° C. for 45-60 minutes with FITC-labeled goat anti-human IgG. The cells were washed and fixed with BD Cytofix, refrigerated overnight and analyzed on a MACSQuant flow cytometer. The percentage of PD-1 positive cells at each antibody concentration was plotted vs log of the antibody concentration and EC₅₀ values were generated in Prism.

[5] = target: T4, Extracellular domain of human PD1 (huPD1-ECD) (human, UniProt Q15116 25-169, biotinylated in the ligand inhibition assay (sites not given)); experiment: MSD ligand inhibition, competitor coated cynoPDL1-ECD
T4 construct: Expressed with a hexahistidine tag or as Fc fusion; also called biotinylated PD-1

[6] = target: T3, Extracellular domain of cyno PD1 …; experiment: SPR ProteOn, cynoPD1-ECD; RANGE high replicate
Description: as §1, §2

[7] = target: T3, Extracellular domain of cyno PD1 …; experiment: SPR ProteOn, cynoPD1-ECD; RANGE high replicate; RANGE high replicate
Description: as §1, §2

[8] = target: T4, Extracellular domain of human PD1 …; experiment: SPR ProteOn, captured mAb, huPD1-ECD analyte
Description: as §1, §2

[9] = target: T3, Extracellular domain of cyno PD1 …; experiment: SPR ProteOn, cynoPD1-ECD; RANGE low replicate; RANGE low replicate
Description: as §1
STDEV were calculated for 3 or more replicates generated for human and cyno proteins. If less than 3 replicates were calculated, RANGE was indicated. RANGE is defined as the low and high values for the replicates tested.

[10] = target: T3, Extracellular domain of cyno PD1 …; experiment: SPR ProteOn, cynoPD1-ECD; RANGE low replicate
Description: as §1, §2

[11] = target: T3, Extracellular domain of cyno PD1 …; experiment: SPR ProteOn, captured mAb, cynoPD1-ECD analyte
Description: as §1
(§3) STDEV were calculated for 3 or more replicates generated for human and cyno proteins. If less than 3 replicates were calculated, RANGE is indicated. RANGE is defined as the low and high values for the replicates tested. For samples without RANGE or STDEV, only one experiment was performed

[12] = target: T4, Extracellular domain of human PD1 …; experiment: SPR ProteOn, captured mAb, huPD1-ECD analyte; remark: listed apart in the source
Description: as §1, §3

T4 sequence (Q15116 25-169 limits assumed): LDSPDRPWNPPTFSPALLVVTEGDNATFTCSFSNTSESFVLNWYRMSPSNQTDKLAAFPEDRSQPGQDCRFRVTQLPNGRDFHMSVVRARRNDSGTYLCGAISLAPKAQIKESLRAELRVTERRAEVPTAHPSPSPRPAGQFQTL
T2 sequence (Q15116 25-288 limits assumed): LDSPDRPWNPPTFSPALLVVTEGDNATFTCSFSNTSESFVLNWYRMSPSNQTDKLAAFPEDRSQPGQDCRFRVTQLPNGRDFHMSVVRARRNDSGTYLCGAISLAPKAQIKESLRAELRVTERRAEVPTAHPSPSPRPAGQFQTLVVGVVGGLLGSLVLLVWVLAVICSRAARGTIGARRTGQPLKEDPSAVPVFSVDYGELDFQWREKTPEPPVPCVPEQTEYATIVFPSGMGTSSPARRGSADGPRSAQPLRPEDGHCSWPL

- Galectin 9 Inhibition, % inhibition (maximal) [1]: 57%
B1: TM3B196 (antibody, V domains shown)
VH: QVQLKESGPGLVAPSQSLSITCTISGFSLTSYGVHWVRQPPGKGLEWLVVIWSDGSTTYNSALKSRLSISKDNSKSQVFLKMNSLQTDDTAMYYCARQANYRYDSAMDYWGQGTSVTVSS
VL: DIQMTQSPASLAVSLGQRATISCKASQSVDYDGDSYMNWYQQKPGQPPKLLIYTAANLQSGIPARFSGSGSGTDFTLNIHPVEEEDAATYYCQQSNEDPFTFGSGTKLEIK
notes: Mouse-derived variable domains; also called TM3H102/TM3L64

- Galectin 9 Inhibition, % inhibition (maximal) [1]: 47.4%
B2: TM3B193 (antibody, V domains shown)
VH: EVQLQQSGAELVKPGASVKLSCTASGFHIKDTYLHWVKQRPEQGLEWIGRIDPTNGNIKYDPKFQGKATITSDTSSNTAYLQLSSLTSEDTAVYYCARPYYGFFDYWGQGTTLTVSS
VL: DIVMTQSHKFMSTSVGDRVSITCKASQDVNTAVAWYQQKPGQSPKLLIYSATYRYTGVPDRFTGSGSGTDFTFTISSVQAEDLAVYYCQQHYSTPYTFGSGTKLEIK
notes: Mouse-derived variable domains; also called TM3H99/TM3L52

- Galectin 9 Inhibition, % inhibition (maximal) [1]: 75.6%
B3: TM3B113 (antibody, V domains shown)
VH: EVQLLESGGGLVQPGGSLRLSCAASGFTFSDYWMSWVRQAPGKGLEWVSVIKYSGGSKYYADSVKGRFTISRDNSKNTLYLQMNSLRAEDTAVYYCAKELEGVFDYWGQGTLVTVSS
VL: EIVLTQSPGTLSLSPGERATLSCRASQSVSNSTLAWYQQKPGQAPRLLIYTASSRATGIPDRFSGSGSGTDFTLTISRLEPEDFAVYYCQQSYTSPWTFGQGTKVEIK
notes: also called TM3H65/TM3L12

- CMV EC50, nM (IFN-γ induction) [2]: 0.02 nM
- MLR EC50, nM (IFN-γ induction) [2]: 0.07 nM
B4: PD1B243 (antibody, human IgG4 S228P, kappa, V domains shown)
VH: EVQLVESGGGLVQPGGSLRLSCAASGFAFSRYDMSWVRQAPGKGLESVAYISGGGANTYYLDNVKGRFTISRDNAKNSLYLQMNSLRAEDTAVYYCASPYLSYFDVWGQGTLVTVSS
VL: EIVMTQSPATLSVSPGERATLSCRASQSLSDYLHWYQQKPGQAPRLLIKSASQSISGIPARFSGSGSGTEFTLTISSLQSEDFAVYYCQNGHSFPYTFGQGTKLEIKR

- CMV EC50, nM (IFN-γ induction) [2]: 0.03 nM
- MLR EC50, nM (IFN-γ induction) [2]: 0.08 nM
B5: PD1B244 (antibody, human IgG4 S228P, kappa, V domains shown)
VH: QVQLVQSGAEVKKPGSSVKVSCKASGGTFSSYAISWVRQAPGQGLEWMGGIIPIFDTANYAQKFQGRVTITADESTSTAYMELSSLRSEDTAVYYCARPGLAAAYDTGSLDYWGQGTLVTVSS
VL: EIVLTQSPATLSLSPGERATLSCRASQSVRSYLAWYQQKPGQAPRLLIYDASNRATGIPARFSGSGSGTDFTLTISSLEPEDFAVYYCQQRNYWPLTFGQGTKVEIKR

- Kd [3]: 2.53 nM
- koff [3]: 0.000979 s⁻¹
- kon [3]: 387000 M⁻¹ s⁻¹
- EC50 [4]: 0.05 µg/mL
- percentage ligand not blocked at 1 µg/ml [5]: 7%
- percentage ligand not blocked at 10 µg/ml [5]: 6%
- Kd [6]: 2.6 nM
- kon [6]: 389000 M⁻¹ s⁻¹
- koff [7]: 0.000998 s⁻¹
- Kd [8]: 5.95 nM
- koff [8]: 0.00386 s⁻¹
- kon [8]: 649000 M⁻¹ s⁻¹
- koff [9]: 0.000959 s⁻¹
- Kd [10]: 2.5 nM
- kon [10]: 384000 M⁻¹ s⁻¹
B6: PD1B162 (antibody, human IgG2, kappa, V domains shown)
VH: B5 VH with S109N
VL: B5 VL with R30D, N92E
notes: IgG2sigma/kappa; VH 42, VL 52; also called PD1H131/PD1L67

- Kd [3]: 16.4 nM
- koff [3]: 0.00504 s⁻¹
- kon [3]: 307000 M⁻¹ s⁻¹
- EC50 [4]: 0.06 µg/mL
- percentage ligand not blocked at 1 µg/ml [5]: 5%
- percentage ligand not blocked at 10 µg/ml [5]: 5%
- Kd [6]: 18 nM
- koff [7]: 0.00522 s⁻¹
- kon [7]: 324000 M⁻¹ s⁻¹
- koff [8]: 0.0117 s⁻¹
- kon [8]: 541000 M⁻¹ s⁻¹
- Kd [10]: 15 nM
- koff [10]: 0.00486 s⁻¹
- kon [10]: 290000 M⁻¹ s⁻¹
B7: PD1B192 (antibody, human IgG2, kappa, V domains shown)
VH: B5 VH with D56G
VL: B5 VL with R30D, Y49H
notes: IgG2sigma/kappa; VH 43, VL 57; also called PD1H3/PD1L133

- Kd [3]: 1.07 nM
- koff [3]: 0.000287 s⁻¹
- kon [3]: 267000 M⁻¹ s⁻¹
- EC50 [4]: 0.06 µg/mL
- percentage ligand not blocked at 1 µg/ml [5]: 6%
- percentage ligand not blocked at 10 µg/ml [5]: 3%
- Kd [6]: 1.09 nM
- kon [6]: 267000 M⁻¹ s⁻¹
- koff [7]: 0.000291 s⁻¹
- Kd [8]: 2.92 nM
- koff [8]: 0.00131 s⁻¹
- kon [8]: 448000 M⁻¹ s⁻¹
- koff [9]: 0.000282 s⁻¹
- Kd [10]: 1.06 nM
- kon [10]: 267000 M⁻¹ s⁻¹
B8: PD1B164 (antibody, human IgG2, kappa, V domains shown)
VH: B5 VH with S109N
VL: B5 VL with N53Y, N92D
notes: IgG2sigma/kappa; VH 42, VL 53; also called PD1H131/PD1L71

- Kd [3]: 30 nM
- koff [3]: 0.0064 s⁻¹
- kon [3]: 214000 M⁻¹ s⁻¹
- EC50 [4]: 0.09 µg/mL
- percentage ligand not blocked at 1 µg/ml [5]: 6%
- percentage ligand not blocked at 10 µg/ml [5]: 5%
- Kd [6]: 34 nM
- koff [7]: 0.00673 s⁻¹
- kon [7]: 230000 M⁻¹ s⁻¹
- Kd [8]: 23 nM
- koff [8]: 0.00972 s⁻¹
- kon [8]: 422000 M⁻¹ s⁻¹
- koff [9]: 0.00606 s⁻¹
- Kd [10]: 26 nM
- kon [10]: 198000 M⁻¹ s⁻¹
B9: PD1B175 (antibody, V domains shown)
VH: QVQLVQSGAEVKKPGSSVKVSCKASGGTFKSYVIHWVRQAPGQGLEWMGGIIPIFGTANYAQKFQGRVTITADESTSTAYMELSSLRSEDTAVYYCARGYVRATGMLDYWGQGTLVTVSS
VL: EIVLTQSPATLSLSPGERATLSCRASQSVSSYLAWYQQKPGQAPRLLIYDASNRATGIPARFSGSGSGTDFTLTISSLEPEDFAVYYCQQRSNWPLTFGQGTKVEIK
notes: Tested as IgG2sigma; also called PD1H163/PH9L3

- Kd [11]: 0.58 nM
- koff [11]: 0.000176 s⁻¹
- kon [11]: 303000 M⁻¹ s⁻¹
- Kd [12]: 0.41 nM
- koff [12]: 0.000366 s⁻¹
- kon [12]: 883000 M⁻¹ s⁻¹
- CMV EC50, nM (IFN-γ induction) [2]: 0.31 nM
- MLR EC50, nM (IFN-γ induction) [2]: 0.14 nM
B10: PD1B196 (antibody, V domains shown)
VH: B5 VH
VL: B9 VL with S30R, S92N, N93Y
notes: also called PD1H170/PD1L148

- Kd [11]: 0.96 nM
- koff [11]: 0.000293 s⁻¹
- kon [11]: 305000 M⁻¹ s⁻¹
- Kd [12]: 1.12 nM
- koff [12]: 0.000957 s⁻¹
- kon [12]: 858000 M⁻¹ s⁻¹
- CMV EC50, nM (IFN-γ induction) [2]: 2.6 nM
B11: PD1B201 (antibody, V domains shown)
VH: B9 VH with K30S, S31D, H35S, F55Y, Y100T, V101L, R102D, A103R, M106H
VL: B9 VL with S31N, S92N, N93Y
notes: also called PD1H164/PD1L190

- Kd [11]: 1.11 nM
- koff [11]: 0.000422 s⁻¹
- kon [11]: 380000 M⁻¹ s⁻¹
- Kd [12]: 1.17 nM
- koff [12]: 0.00122 s⁻¹
- kon [12]: 1.05e+06 M⁻¹ s⁻¹
- CMV EC50, nM (IFN-γ induction) [2]: 3.81 nM
B12: PD1B200 (antibody, V domains shown)
VH: B9 VH with K30S, S31D, H35S, F55Y, Y100T, V101L, R102D, A103R, M106H
VL: B9 VL with S30D, S31N, Y49H, N93A
notes: also called PD1H164/PD1L168

- Kd [11]: 0.52 nM
- koff [11]: 0.000177 s⁻¹
- kon [11]: 340000 M⁻¹ s⁻¹
- Kd [12]: 0.6 nM
- koff [12]: 0.000564 s⁻¹
- kon [12]: 933000 M⁻¹ s⁻¹
- MLR EC50, nM (IFN-γ induction) [2]: 0.63 nM
B13: PD1B199 (antibody, V domains shown)
VH: B9 VH with K30S, S31D, H35S, F55Y, Y100T, V101L, R102D, A103R, M106H
VL: B9 VL with Y49H, N53T, S92N, N93Y
notes: also called PD1H164/PD1L86
